# System: His6-ComPsub (Neisseria subflava NJ9703), PDB:2NBA_1
# Assay: SPR
# Details: DNA immobilized on neutravidin chip; EMSA: 20 mM Tris-Cl pH 8, 50 mM NaCl, 2.5 mM Mg2+, ambient temperature; SPR: 20 mM Tris pH 8, 150 mM NaCl, 0.05% Tween 20, 25 C; NMR: 50 mM sodium phosphate pH …
sequence,measurement,value
TGACCAGGCCGTCTGAACAAAC (double strand) [DUSvar1 ds primer (biotinylated)],Kd,52.7 µM

# — paper PMC4906244
